Residue numbers refer to the chain shown, from its start. Names may count otherwise.
T1: human H131 FcγRIIa receptor protein (6xHis and GST tags) (human, UniProt P12318 34-217, limits assumed)
T1 construct: also called HIIa
T1 sequence (looked up): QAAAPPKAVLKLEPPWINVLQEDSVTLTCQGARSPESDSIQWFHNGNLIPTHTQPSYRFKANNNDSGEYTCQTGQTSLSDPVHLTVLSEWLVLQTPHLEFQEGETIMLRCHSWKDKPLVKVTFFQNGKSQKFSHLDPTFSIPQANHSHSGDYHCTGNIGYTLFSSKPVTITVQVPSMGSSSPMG

T2: FcγRIIaR (human, UniProt P12318)
T2 construct: recombinant receptor protein with 6xHis and GST tags; also called R131 FcγRIIa
T2 sequence (receptor, looked up): T1 sequence (looked up) with H134R

T3: human FcγRIIb receptor protein (R&D Systems) (human, UniProt P31994 46-217)
T3 construct: Analyte injected over antibodies captured on a protein A/G chip (Biacore); also called CD32b
T3 sequence (looked up): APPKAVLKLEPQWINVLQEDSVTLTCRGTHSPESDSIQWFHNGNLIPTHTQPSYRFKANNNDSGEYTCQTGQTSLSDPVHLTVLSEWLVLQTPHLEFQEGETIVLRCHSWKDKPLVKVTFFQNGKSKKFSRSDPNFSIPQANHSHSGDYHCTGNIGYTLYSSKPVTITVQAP

B1: A327D (antibody, human IgG1, kappa)
heavy: not shown
light: DIVMTQSPATLSLSPGERATLSCRSSKSLQNVNGNTYLYWFQQKPGQSPQLLIYRMSNLNSGVPDRFSGSGSGTEFTLTISSLEPEDFAVYYCMQHLEYPITFGAGTKLEIKRTVAAPSVFIFPPSDEQLKSGTASVVCLLNNFYPREAKVQWKVDNALQSGNSQESVTEQDSKDSTYSLSSTLTLSKADYEKHKVYACEVTHQGLSSPVTKSFNRGEC
notes: HuAM4G7 IgG1 Fc variant
B2: H268E (antibody, human IgG1, kappa)
heavy: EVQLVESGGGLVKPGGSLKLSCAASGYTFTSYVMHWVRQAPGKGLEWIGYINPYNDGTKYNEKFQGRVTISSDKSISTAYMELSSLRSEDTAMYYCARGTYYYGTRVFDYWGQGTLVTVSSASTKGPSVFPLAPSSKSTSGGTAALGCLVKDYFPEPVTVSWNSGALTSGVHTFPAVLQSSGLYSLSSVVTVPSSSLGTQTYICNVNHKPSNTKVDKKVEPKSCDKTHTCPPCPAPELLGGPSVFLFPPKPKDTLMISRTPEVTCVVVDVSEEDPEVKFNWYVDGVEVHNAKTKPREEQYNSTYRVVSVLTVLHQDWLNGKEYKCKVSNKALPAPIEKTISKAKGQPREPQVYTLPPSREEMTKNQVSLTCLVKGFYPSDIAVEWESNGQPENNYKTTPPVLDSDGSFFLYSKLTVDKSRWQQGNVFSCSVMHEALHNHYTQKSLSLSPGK
light: B1 light
notes: HuAM4G7 IgG1 Fc variant
B3: L234E/S267E/L328F (antibody, human IgG1, kappa)
heavy: EVQLVESGGGLVKPGGSLKLSCAASGYTFTSYVMHWVRQAPGKGLEWIGYINPYNDGTKYNEKFQGRVTISSDKSISTAYMELSSLRSEDTAMYYCARGTYYYGTRVFDYWGQGTLVTVSSASTKGPSVFPLAPSSKSTSGGTAALGCLVKDYFPEPVTVSWNSGALTSGVHTFPAVLQSSGLYSLSSVVTVPSSSLGTQTYICNVNHKPSNTKVDKKVEPKSCDKTHTCPPCPAPEELGGPSVFLFPPKPKDTLMISRTPEVTCVVVDVEHEDPEVKFNWYVDGVEVHNAKTKPREEQYNSTYRVVSVLTVLHQDWLNGKEYKCKVSNKAFPAPIEKTISKAKGQPREPQVYTLPPSREEMTKNQVSLTCLVKGFYPSDIAVEWESNGQPENNYKTTPPVLDSDGSFFLYSKLTVDKSRWQQGNVFSCSVMHEALHNHYTQKSLSLSPGK
light: B1 light
notes: HuAM4G7 IgG1 Fc variant
B4: L234F/S267E (antibody, human IgG1, kappa)
heavy: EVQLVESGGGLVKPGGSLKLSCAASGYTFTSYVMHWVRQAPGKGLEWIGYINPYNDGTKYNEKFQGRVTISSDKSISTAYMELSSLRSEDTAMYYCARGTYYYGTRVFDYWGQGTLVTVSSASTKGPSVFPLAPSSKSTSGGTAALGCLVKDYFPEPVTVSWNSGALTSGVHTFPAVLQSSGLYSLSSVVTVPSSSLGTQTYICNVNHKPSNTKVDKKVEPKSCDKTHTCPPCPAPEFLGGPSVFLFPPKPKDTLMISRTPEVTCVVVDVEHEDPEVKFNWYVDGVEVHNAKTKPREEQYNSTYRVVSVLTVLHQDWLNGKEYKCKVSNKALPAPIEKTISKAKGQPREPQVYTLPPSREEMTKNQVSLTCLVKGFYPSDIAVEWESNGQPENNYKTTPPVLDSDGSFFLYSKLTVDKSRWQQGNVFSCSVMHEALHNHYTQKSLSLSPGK
light: B1 light
notes: HuAM4G7 IgG1 Fc variant
B5: A327N (antibody, human IgG1, kappa)
heavy: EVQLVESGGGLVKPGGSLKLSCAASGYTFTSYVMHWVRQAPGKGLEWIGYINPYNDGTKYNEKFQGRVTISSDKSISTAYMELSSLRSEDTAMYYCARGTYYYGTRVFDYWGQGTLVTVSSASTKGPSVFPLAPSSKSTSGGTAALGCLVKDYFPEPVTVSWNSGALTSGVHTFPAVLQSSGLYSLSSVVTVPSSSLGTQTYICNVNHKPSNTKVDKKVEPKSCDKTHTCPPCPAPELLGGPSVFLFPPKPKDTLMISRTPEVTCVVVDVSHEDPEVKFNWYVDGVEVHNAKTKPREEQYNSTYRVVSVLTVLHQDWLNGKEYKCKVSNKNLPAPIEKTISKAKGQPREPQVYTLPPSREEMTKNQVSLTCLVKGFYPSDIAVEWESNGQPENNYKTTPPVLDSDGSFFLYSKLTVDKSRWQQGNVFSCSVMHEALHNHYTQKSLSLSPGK
light: B1 light
notes: HuAM4G7 IgG1 Fc variant
B6: G237A (antibody, human IgG1, kappa)
heavy: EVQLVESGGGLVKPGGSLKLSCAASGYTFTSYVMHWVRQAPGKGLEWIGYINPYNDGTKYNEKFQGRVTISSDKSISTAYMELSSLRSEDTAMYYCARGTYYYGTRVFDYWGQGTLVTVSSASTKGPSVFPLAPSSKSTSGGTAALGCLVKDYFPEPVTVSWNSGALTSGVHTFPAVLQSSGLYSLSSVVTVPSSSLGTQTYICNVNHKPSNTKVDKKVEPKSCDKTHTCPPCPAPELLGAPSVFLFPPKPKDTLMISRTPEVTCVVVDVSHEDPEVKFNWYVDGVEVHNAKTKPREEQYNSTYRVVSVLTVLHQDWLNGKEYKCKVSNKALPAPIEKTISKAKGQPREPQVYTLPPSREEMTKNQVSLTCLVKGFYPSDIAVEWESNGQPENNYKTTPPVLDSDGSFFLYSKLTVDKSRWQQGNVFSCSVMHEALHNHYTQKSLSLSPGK
light: B1 light
notes: HuAM4G7 IgG1 Fc variant
B7: G236N/S267E (antibody, human IgG1, kappa)
heavy: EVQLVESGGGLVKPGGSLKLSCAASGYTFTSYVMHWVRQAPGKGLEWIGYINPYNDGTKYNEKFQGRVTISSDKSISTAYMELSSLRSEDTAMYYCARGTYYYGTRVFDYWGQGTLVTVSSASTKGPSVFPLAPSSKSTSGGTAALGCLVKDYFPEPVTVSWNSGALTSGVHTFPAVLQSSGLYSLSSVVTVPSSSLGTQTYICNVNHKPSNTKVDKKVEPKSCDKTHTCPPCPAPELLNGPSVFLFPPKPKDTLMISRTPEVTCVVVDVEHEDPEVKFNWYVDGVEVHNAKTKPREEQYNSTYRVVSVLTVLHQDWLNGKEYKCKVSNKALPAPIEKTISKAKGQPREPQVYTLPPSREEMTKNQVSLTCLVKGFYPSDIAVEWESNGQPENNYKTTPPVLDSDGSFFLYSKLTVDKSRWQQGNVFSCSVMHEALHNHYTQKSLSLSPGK
light: B1 light
notes: HuAM4G7 IgG1 Fc variant
B8: G237D/S267E (antibody, human IgG1, kappa)
heavy: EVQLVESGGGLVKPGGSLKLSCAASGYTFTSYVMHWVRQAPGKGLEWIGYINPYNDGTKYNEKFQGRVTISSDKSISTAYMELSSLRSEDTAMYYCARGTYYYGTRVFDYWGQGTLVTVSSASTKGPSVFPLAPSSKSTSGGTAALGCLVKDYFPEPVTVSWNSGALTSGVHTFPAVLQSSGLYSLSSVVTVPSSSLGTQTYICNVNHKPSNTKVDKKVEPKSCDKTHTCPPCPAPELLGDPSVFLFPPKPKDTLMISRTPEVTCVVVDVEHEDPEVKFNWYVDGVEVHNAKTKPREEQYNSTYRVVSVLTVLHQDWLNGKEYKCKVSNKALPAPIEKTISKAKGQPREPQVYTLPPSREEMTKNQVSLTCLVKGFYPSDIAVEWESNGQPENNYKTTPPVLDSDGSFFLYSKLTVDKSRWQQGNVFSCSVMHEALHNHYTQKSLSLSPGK
light: B1 light
notes: HuAM4G7 IgG1 Fc variant
B9: H268D (antibody, human IgG1, kappa)
heavy: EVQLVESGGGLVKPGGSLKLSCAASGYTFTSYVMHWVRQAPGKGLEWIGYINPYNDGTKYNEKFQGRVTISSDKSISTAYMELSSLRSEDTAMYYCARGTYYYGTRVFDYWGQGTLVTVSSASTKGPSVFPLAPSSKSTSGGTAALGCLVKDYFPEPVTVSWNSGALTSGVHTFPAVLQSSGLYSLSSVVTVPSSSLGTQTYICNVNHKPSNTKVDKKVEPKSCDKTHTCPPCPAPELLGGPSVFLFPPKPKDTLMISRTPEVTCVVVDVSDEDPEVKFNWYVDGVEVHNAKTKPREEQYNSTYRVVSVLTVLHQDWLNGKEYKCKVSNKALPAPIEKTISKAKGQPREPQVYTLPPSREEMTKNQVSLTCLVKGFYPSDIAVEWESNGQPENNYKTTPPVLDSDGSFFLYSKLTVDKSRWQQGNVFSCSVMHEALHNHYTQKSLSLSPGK
light: B1 light
notes: HuAM4G7 IgG1 Fc variant
B10: L234E/S267E (antibody, human IgG1, kappa)
heavy: not shown
light: B1 light
notes: HuAM4G7 IgG1 Fc variant
B11: L234F (antibody, human IgG1, kappa)
heavy: not shown
light: B1 light
notes: HuAM4G7 IgG1 Fc variant
B12: G236D/S267E/L328F (antibody, human IgG1, kappa)
heavy: B3 heavy with E238L, G240D
light: B1 light
notes: HuAM4G7 IgG1 Fc variant
B13: G236S (antibody, human IgG1, kappa)
heavy: not shown
light: B1 light
notes: HuAM4G7 IgG1 Fc variant
B14: G236D/S239D/S267E (antibody, human IgG1, kappa)
heavy: B3 heavy with E238L, G240D, S243D, F332L
light: B1 light
notes: HuAM4G7 IgG1 Fc variant
B15: L235A (antibody, human IgG1, kappa)
heavy: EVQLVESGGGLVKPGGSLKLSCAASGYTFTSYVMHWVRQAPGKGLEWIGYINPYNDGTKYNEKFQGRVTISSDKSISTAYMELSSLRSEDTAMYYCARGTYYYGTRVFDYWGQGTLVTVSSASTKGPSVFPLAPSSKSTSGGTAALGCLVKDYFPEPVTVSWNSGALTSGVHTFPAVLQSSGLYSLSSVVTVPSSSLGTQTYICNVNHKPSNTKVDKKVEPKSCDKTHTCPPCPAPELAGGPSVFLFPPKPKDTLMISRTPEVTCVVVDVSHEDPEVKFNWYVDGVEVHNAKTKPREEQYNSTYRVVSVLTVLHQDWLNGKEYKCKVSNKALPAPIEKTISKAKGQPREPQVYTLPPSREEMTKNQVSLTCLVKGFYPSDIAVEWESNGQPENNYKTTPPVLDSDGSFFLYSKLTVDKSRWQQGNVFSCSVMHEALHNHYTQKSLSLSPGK
light: B1 light
notes: HuAM4G7 IgG1 Fc variant
B16: L235D/S267E (antibody, human IgG1, kappa)
heavy: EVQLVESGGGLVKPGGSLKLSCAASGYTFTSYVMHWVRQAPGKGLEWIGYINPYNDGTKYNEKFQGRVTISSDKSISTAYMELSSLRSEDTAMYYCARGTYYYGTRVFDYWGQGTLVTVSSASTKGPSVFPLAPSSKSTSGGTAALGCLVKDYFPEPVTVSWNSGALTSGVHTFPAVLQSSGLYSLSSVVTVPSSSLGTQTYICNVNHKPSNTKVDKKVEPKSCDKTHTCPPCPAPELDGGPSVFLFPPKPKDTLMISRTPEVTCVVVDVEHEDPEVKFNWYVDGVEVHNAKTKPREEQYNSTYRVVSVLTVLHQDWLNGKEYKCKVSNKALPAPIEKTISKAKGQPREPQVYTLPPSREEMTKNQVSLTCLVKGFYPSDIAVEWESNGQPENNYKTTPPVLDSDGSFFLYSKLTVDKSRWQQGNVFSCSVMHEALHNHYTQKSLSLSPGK
light: B1 light
notes: HuAM4G7 IgG1 Fc variant
B17: G236D/S267E/H268E (antibody, human IgG1, kappa)
heavy: B3 heavy with E238L, G240D, H272E, F332L
light: B1 light
notes: HuAM4G7 IgG1 Fc variant
B18: G236T (antibody, human IgG1, kappa)
heavy: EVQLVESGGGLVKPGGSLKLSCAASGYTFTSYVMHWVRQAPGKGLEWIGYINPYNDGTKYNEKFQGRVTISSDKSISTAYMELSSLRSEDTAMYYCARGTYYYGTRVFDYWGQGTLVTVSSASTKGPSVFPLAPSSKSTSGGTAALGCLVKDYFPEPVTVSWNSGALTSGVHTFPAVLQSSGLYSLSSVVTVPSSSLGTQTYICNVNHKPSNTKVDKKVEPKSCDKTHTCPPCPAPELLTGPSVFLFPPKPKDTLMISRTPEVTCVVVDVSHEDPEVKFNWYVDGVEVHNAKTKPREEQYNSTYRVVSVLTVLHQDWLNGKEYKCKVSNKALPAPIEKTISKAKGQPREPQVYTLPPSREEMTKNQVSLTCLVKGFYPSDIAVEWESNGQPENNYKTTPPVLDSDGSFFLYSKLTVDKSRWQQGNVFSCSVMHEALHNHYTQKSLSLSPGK
light: B1 light
notes: HuAM4G7 IgG1 Fc variant
B19: V266M (antibody, human IgG1, kappa)
heavy: not shown
light: B1 light
notes: HuAM4G7 IgG1 Fc variant
B20: S267A (antibody, human IgG1, kappa)
heavy: not shown
light: B1 light
notes: HuAM4G7 IgG1 Fc variant
B21: S239E (antibody, human IgG1, kappa)
heavy: not shown
light: B1 light
notes: HuAM4G7 IgG1 Fc variant
B22: anti-CD19 antibody HuAM4G7 IgG1 Fc variant S239D/S267E (antibody)
heavy: not shown
light: B1 light
notes: Positions are EU numbers, not positions on the UniProt entry; copies: 2 + 2
B23: S267D (antibody, human IgG1, kappa)
heavy: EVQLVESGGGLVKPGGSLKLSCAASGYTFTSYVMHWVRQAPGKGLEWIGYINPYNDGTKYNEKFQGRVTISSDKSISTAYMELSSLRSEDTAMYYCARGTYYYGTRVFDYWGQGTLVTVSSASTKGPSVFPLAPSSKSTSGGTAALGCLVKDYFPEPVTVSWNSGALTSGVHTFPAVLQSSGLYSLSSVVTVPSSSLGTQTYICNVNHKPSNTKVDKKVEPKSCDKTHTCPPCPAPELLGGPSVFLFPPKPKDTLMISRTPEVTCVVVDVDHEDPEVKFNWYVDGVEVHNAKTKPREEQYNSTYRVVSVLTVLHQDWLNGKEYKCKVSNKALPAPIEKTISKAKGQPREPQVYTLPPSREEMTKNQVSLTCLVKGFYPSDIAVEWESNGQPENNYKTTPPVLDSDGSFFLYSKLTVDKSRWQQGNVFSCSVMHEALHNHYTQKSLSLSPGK
light: B1 light
notes: HuAM4G7 IgG1 Fc variant
B24: S267E/L328Y (antibody, human IgG1, kappa)
heavy: not shown
light: B1 light
notes: HuAM4G7 IgG1 Fc variant

Target: T1, human H131 FcγRIIa receptor protein …
Assay: SPR (Biacore)

Fold FcγRIIaH [fold] | binding result | Binder
0.733 | – | B1
1.43 | – | B2
0.0725 | – | B3
0.509 | – | B4
– | no binding | B5
– | no binding | B6
– | no binding | B7
– | no binding | B8
1.89 | – | B9
– | no binding | B10
– | no binding | B11
0.0301 | – | B12
3.76 | – | B13
0.217 | – | B14
0.0486 | – | B15
– | no binding | B16
0.103 | – | B17
0.486 | – | B18

Target: T2, FcγRIIaR
Assay: SPR (Biacore)

Fold FcγRIIaR [fold] | Binder
1.6 | B1
3.19 | B2
3.13 | B19
4.29 | B20
174 | B3
0.688 | B21
20.7 | B4
0.609 | B5
0.704 | B6
120 | B22
3.27 | B7
8.99 | B23
13.6 | B8
4.19 | B9
10.7 | B10
122 | B24
0.228 | B11
59.9 | B12
2.33 | B13
26.7 | B14
0.166 | B15
13 | B16
29.9 | B17
0.35 | B18

Target: T4, human V158 FcγRIIIa receptor protein (6xHis and GST tags) (human, UniProt P08637 17-208, limits assumed)
T4 construct: also called VIIIa
Assay: SPR (Biacore)

Fold FcγRIIIaV [fold] | binding result | Binder
0.398 | – | B1
2.19 | – | B2
0.547 | – | B19
0.952 | – | B20
– | no binding | B3
3.49 | – | B21
0.0938 | – | B4
– | no binding | B5
– | no binding | B6
3.74 | – | B22
– | no binding | B7
1.51 | – | B23
– | no binding | B8
3.08 | – | B9
– | no binding | B10
– | no binding | B24
– | no binding | B11
– | no binding | B12
– | no binding | B14
0.314 | – | B15
– | no binding | B16
– | no binding | B17
– | no binding | B18

Target: T5, human FcγRI receptor protein (R&D Systems) (human, UniProt P12314 16-288)
T5 construct: also called CD64
Assay: SPR (Biacore)

Fold FcγRI [fold] | Binder
2.06 | B1
2.74 | B2
1.25 | B19
1.15 | B20
0.0425 | B3
1.65 | B21
0.661 | B4
0.0279 | B5
0.0108 | B6
23.2 | B22
0.0355 | B7
2.11 | B23
0.0874 | B8
2.35 | B9
0.131 | B10
0.224 | B24
0.0362 | B11
0.0736 | B12
0.0268 | B13
0.0685 | B14
0.0179 | B15
0.00039 | B16
0.0902 | B17
0.0157 | B18

Target: T3, human FcγRIIb receptor protein (R&D …)
Assay: SPR (Biacore)

Fold FcγRIIb [fold] | Binder
1.33 | B1
2.62 | B2
1.91 | B19
3.6 | B20
195 | B3
0.803 | B21
26.4 | B4
0.843 | B5
0.191 | B6
111 | B22
19.8 | B7
4.45 | B23
17 | B8
3.06 | B9
15.1 | B10
43.1 | B24
0.409 | B11
149 | B12
1.02 | B13
84.8 | B14
0.351 | B15
16.7 | B16
110 | B17

— patent US20170355766A1 (Xencor, published 2017)
